In PMC9156751, “Dynamic arrest and aging of biomolecular condensates are modulated by low-complexity domains, RNA and biochemical activity” (Nature Communications, 2022):

Molecular target: the molecule itself
Assay: dynamic light scattering; 5 µM Dhh1 with an excess of 5 mM ATP/MgCl2, no RNA; reference buffer 90 mM KCl, 30 mM HEPES-KOH pH 7.4, 2 mM MgCl2; Zetasizer Nano ZS, 173° backscattering; combined with microscopy

B1: mCherry-tagged Dhh1^48–425 (domain or fragment, yeast, UniProt P39517 48-425, looked up)
chain: FEDFYLKRELLMGIFEAGFEKPSPIQEEAIPVAITGRDILARAKNGTGKTAAFVIPTLEKVKPKLNKIQALIMVPTRELALQTSQVVRTLGKHCGISCMVTTGGTNLRDDILRLNETVHILVGTPGRVLDLASRKVADLSDCSLFIMDEADKMLSRDFKTIIEQILSFLPPTHQSLLFSATFPLTVKEFMVKHLHKPYEINLMEELTLKGITQYYAFVEERQKLHCLNTLFSKLQINQAIIFCNSTNRVELLAKKITDLGYSCYYSHARMKQQERNKVFHEFRQGKVRTLVCSDLLTRGIDIQAVNVVINFDFPKTAETYLHRIGRSGRFGHLGLAINLINWNDRFNLYKIEQELGTEIAAIPATIDKSLYVAENDET
notes: DEAD-box ATPase Dhh1 of yeast, residues 48-425: the two RecA domains without the N- and C-terminal low-complexity domains; also called tail-less Dhh1^48–425; LCD-lacking variant; source: E. coli BL21-Gold (DE3), purified (Ni2+ Chelating Sepharose, Superdex 75 SEC)
  binding result: binds
